Assay results: patent US20100137420

How the values were obtained:
[1] = target: cathepsin B (from THP-1 cell lysates) (UniProt P07858)

Chain of cathepsin D (chain, as listed by the source): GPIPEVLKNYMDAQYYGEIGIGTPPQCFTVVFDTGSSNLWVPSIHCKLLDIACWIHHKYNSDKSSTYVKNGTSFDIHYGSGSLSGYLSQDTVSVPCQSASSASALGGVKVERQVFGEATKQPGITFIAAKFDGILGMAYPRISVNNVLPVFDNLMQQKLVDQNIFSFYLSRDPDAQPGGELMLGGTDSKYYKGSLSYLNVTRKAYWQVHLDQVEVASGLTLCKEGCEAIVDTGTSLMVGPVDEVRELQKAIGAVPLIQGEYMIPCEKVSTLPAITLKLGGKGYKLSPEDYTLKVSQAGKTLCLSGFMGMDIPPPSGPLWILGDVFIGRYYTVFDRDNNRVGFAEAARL
Chain of recombinant cystatin C (chain, as listed by the source): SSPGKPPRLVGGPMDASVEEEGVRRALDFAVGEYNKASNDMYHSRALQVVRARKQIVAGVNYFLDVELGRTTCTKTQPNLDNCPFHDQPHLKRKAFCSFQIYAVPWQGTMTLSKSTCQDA

For cathepsin D, the “cathepsin B activity (fluorogenic Ac-Arg-Arg-AFC assay)” value [1] was “Cathepsin D and MMP-2 alone had no effect on cathepsin B activity” and the “cleavage of recombinant cystatin C” value (recombinant cystatin C) was “cathepsin D cleaved cystatin C at four different sites, and yielded a 12.5 kD fragment following cleavage from the C terminal region”.
